Assay results reported in US20050282743A1, “Molecular interactions in cells” (Arbor Vita Corporation, priority 2001, published 2005).
Values belong to the binder of their own block, whether it stands above or below them.

Legend:
[1] = biological target: T1, GST-AF6 PDZ domain 1 (Homo sapiens (Human)), P55196; test: G' assay; note: key of the grades not given here
T1 chain: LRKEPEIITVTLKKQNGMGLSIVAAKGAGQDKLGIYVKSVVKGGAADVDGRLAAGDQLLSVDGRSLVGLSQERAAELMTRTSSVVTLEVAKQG

[2] = biological target: T2, GST-AIPC PDZ domain 1 (Homo sapiens (Human)), O15018; test: G' assay; note: key of the grades not given here
T2 chain: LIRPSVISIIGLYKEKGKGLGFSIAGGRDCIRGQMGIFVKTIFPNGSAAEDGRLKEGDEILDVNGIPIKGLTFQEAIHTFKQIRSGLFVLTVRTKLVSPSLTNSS

[3] = biological target: T3, GST-AIPC PDZ domain 4 (Homo sapiens (Human)), O15018; test: G' assay; note: key of the grades not given here
T3 chain: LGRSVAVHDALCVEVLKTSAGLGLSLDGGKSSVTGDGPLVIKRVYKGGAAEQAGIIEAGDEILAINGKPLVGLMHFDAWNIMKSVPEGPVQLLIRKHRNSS

[4] = biological target: GST-Atrophin-1 Interacting Protein PDZ domain 5 (Rattus norvegicus (Rat)), O88382; test: G' assay; note: key of the grades not given here
[5] = biological target: T4, GST-DVL2 PDZ domain 1 (Homo sapiens (Human)), O14641; test: G' assay; note: key of the grades not given here
T4 chain: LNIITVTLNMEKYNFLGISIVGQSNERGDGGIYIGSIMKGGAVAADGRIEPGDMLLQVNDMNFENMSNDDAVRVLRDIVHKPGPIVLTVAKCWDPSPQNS

[6] = biological target: T5, GST-FLJ 10324 PDZ domain 1 [GST: P08515]; test: G' assay; note: key of the grades not given here
T5 chain: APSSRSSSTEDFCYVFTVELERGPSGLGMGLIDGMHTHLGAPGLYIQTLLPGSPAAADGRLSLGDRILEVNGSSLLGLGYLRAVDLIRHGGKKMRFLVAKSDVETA

[7] = biological target: T6, GST-HEMBA 1003117 PDZ domain 1 (Homo sapiens (Human)), Q96JH8; test: G' assay; note: key of the grades not given here
T6 chain: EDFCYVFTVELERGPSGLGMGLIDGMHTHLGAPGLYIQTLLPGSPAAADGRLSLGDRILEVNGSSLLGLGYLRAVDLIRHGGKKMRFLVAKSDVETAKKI

[8] = biological target: T7, GST-INADL PDZ domain 3 (Homo sapiens (Human)), Q8NI35; test: G' assay; note: key of the grades not given here
T7 chain: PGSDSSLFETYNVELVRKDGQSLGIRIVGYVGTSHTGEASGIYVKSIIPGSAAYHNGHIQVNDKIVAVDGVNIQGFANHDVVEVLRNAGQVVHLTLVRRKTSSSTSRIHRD

[9] = biological target: T8, GST-KIAA0561 PDZ domain 1 (Homo sapiens (Human)), O60307; test: G' assay; note: key of the grades not given here
T8 chain: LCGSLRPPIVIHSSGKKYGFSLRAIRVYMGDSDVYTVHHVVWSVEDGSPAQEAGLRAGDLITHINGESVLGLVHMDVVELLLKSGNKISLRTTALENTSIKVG

[10] = biological target: T9, GST-KIAA0751(L) PDZ domain 1 (Mus musculus (Mouse)), Q9EQZ7; test: G' assay; note: key of the grades not given here
T9 chain: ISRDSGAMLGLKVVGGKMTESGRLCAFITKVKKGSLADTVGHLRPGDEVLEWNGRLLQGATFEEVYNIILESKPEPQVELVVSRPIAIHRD

[11] = biological target: T10, GST-KIAA0807(S) PDZ domain 1 (Homo sapiens (Human)), Q6P0Q8; test: G' assay; note: key of the grades not given here
T10 chain: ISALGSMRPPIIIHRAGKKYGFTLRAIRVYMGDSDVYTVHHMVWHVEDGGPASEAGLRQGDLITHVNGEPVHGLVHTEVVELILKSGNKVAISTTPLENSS

[12] = biological target: T11, GST-MINT1 PDZ domains 1, 2, Q02410; test: G' assay; note: key of the grades not given here
T11 chain: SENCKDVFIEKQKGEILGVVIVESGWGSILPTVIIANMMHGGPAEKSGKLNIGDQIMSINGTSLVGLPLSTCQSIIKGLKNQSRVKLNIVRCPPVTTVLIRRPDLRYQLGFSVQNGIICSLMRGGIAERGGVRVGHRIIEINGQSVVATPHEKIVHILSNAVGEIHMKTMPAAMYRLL

[13] = biological target: T12, GST-MUPP1 PDZ domain 3 (Homo sapiens (Human)), O75970; test: G' assay; note: key of the grades not given here
T12 chain: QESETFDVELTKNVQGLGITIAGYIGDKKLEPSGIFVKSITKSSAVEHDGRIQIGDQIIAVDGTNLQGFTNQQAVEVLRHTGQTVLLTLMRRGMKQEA

[14] = biological target: T13, GST-MUPP1 PDZ domain 7 (Homo sapiens (Human)), O75970; test: G' assay; note: key of the grades not given here
T13 chain: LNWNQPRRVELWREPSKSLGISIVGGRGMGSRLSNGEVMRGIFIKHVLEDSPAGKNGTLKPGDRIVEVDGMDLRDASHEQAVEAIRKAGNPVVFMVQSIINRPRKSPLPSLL

[15] = biological target: T14, GST-MUPP1 PDZ domain 9 (Homo sapiens (Human)), O75970; test: G' assay; note: key of the grades not given here
T14 chain: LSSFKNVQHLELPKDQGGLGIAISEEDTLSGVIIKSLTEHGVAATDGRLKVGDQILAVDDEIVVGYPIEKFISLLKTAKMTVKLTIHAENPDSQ

[16] = biological target: T15, GST-NOS1 PDZ domain 1 (Homo sapiens (Human)), P29475; test: G' assay; note: key of the grades not given here
T15 chain: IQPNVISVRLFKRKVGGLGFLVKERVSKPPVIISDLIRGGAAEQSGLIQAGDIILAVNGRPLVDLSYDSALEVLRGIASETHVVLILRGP

[17] = biological target: GST-PAR3 PDZ domain 3 (Homo sapiens (Human)), Q8TEW0; test: G' assay; note: key of the grades not given here
[18] = biological target: T16, GST-PTPL1 PDZ domain 4 (Homo sapiens (Human)), Q12923; test: G' assay; note: key of the grades not given here
T16 chain: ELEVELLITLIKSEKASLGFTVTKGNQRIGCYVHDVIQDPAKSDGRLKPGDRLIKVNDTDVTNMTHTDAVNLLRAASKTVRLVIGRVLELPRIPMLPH

[19] = biological target: T17, GST-ZO-1 PDZ domain 1 (Rattus norvegicus (Rat)), A0A0G2; test: G' assay; note: key of the grades not given here
T17 chain: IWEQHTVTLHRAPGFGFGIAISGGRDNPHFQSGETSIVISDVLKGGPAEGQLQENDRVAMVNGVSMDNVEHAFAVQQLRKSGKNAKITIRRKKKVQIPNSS

[20] = biological target: T5, GST-FLJ 10324 PDZ domain 1 [GST: P08515]; test: G assay titration, PDZ 1 ug/ml
[21] = biological target: T11, GST-MINT1 PDZ domains 1, 2, Q02410; test: G assay titration, PDZ 2 ug/ml
[22] = biological target: T16, GST-PTPL1 PDZ domain 4 (Homo sapiens …); test: G assay titration, PDZ 3 ug/ml
[23] = biological target: T13, GST-MUPP1 PDZ domain 7 (Homo sapiens …); test: G assay titration, PDZ 5 ug/ml
[24] = biological target: T6, GST-HEMBA 1003117 PDZ domain 1 (Homo …); test: G assay titration, PDZ 0.5 ug/ml
[25] = biological target: GST-PAR3 PDZ domain 3 (Homo sapiens (Human)), Q8TEW0; test: G assay titration, PDZ 0.5 ug/ml
[26] = biological target: GST-PSD95 PDZ domains 1, 2, 3 (Homo sapiens), P78352; test: G assay competition vs 10 uM biotin-CD95 20-mer; competitor 100 uM
[27] = biological target: GST-PSD95 PDZ domains 1, 2, 3 (Homo sapiens), P78352; test: G assay competition vs 20 uM biotin-CD46 20-mer; competitor 100 uM
[28] = biological target: GST-PSD95 PDZ domains 1, 2, 3 (Homo sapiens), P78352; test: G assay competition vs 10 uM biotin-KV1.3 20-mer; competitor 100 uM
[29] = biological target: GST-PSD95 PDZ domains 1, 2, 3 (Homo sapiens), P78352; test: G assay competition vs 20 uM biotin-CLASP-2 20-mer; competitor 100 uM
[30] = biological target: GST-BAI-1 Associated Protein PDZ domain 3 (Homo sapiens (Human)), Q96QZ7; test: G' assay; note: key of the grades not given here
[31] = biological target: GST-DLG1 PDZ domains 1, 2 (Homo sapiens), Q12959; test: G' assay; note: key of the grades not given here
[32] = biological target: T18, GST-KIAA1634 PDZ domain 2 (Homo sapiens (Human)), Q5TCQ9; test: G' assay; note: key of the grades not given here
T18 chain: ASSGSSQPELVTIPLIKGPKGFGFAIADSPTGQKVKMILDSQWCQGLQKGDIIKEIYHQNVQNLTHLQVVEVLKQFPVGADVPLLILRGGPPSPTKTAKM

[33] = biological target: T19, GST-NeDLG PDZ domains 1, 2, Q92796; test: G' assay; note: key of the grades not given here
T19 chain: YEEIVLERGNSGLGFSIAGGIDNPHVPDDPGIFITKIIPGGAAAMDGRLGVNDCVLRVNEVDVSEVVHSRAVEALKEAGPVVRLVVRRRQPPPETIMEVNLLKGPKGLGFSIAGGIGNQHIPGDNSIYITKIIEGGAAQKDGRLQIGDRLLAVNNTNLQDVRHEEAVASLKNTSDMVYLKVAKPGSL

[34] = biological target: GST-PSD95 PDZ domains 1, 2, 3 (Homo sapiens), P78352; test: G' assay; note: key of the grades not given here
[35] = biological target: T20, GST-PTPL1 PDZ domain 2 (Homo sapiens (Human)), Q12923; test: G' assay; note: key of the grades not given here
T20 chain: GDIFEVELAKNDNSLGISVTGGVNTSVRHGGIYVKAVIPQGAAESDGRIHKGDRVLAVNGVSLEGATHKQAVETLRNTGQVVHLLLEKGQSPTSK

[36] = biological target: T21, GST-Syntrophin 1 alpha PDZ domain 1 (Homo sapiens (Human)), Q13424; test: G' assay; note: key of the grades not given here
T21 chain: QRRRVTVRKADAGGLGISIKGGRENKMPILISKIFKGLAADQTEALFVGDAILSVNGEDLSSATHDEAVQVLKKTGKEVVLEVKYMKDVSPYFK

[37] = biological target: T22, GST-Syntrophin gamma 1 PDZ domain 1 (Homo sapiens (Human)), Q9NSN8; test: G' assay; note: key of the grades not given here
T22 chain: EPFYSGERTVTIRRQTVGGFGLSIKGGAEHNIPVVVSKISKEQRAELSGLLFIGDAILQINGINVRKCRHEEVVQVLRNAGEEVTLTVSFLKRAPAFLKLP

[38] = biological target: T23, GST-TIP1 PDZ domain 1 (Table 9 insert) (Homo sapiens (Human)), O14907; test: G' assay; note: key of the grades not given here
T23 chain: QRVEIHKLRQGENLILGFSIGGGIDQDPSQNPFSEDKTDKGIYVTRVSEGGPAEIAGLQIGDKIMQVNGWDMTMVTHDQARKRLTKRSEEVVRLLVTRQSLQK

[39] = biological target: T18, GST-KIAA1634 PDZ domain 2 (Homo sapiens …); test: G assay titration, PDZ 1 ug/ml
[40] = biological target: T20, GST-PTPL1 PDZ domain 2 (Homo sapiens …); test: G assay titration, PDZ 0.5 ug/ml
[41] = biological target: T18, GST-KIAA1634 PDZ domain 2 (Homo sapiens …); test: G assay titration, PDZ 5 ug/ml
[42] = biological target: T20, GST-PTPL1 PDZ domain 2 (Homo sapiens …); test: G assay titration, PDZ 5 ug/ml

GST-PSD95 PDZ domains 1, 2, 3 (Homo sapiens), P78352, sequence (P78352 62-395): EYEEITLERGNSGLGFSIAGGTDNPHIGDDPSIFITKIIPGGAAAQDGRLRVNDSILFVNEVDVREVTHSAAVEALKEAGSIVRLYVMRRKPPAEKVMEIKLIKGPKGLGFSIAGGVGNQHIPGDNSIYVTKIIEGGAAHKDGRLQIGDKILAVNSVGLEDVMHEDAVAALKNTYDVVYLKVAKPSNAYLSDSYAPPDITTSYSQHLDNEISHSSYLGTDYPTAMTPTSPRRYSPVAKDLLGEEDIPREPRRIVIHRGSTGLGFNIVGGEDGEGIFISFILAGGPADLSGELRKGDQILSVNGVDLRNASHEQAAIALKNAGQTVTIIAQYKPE
GST-PAR3 PDZ domain 3 (Homo sapiens (Human)), Q8TEW0, sequence (Q8TEW0 579-681): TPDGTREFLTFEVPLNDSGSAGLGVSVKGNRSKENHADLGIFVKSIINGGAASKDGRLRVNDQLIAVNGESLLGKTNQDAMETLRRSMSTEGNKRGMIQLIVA
GST-Atrophin-1 Interacting Protein PDZ domain 5 (Rattus norvegicus (Rat)), O88382, sequence (O88382 1128-1225): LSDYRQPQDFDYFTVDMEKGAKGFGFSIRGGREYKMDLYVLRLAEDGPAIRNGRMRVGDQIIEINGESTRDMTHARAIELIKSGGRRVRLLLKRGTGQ
GST-BAI-1 Associated Protein PDZ domain 3 (Homo sapiens (Human)), Q96QZ7, sequence (Q96QZ7 other isoform, or with tags, fused parts or gaps): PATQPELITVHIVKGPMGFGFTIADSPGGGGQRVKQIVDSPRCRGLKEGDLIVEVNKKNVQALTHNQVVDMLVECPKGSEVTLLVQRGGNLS

Classification [1]: 3 A450 class
Classification [2]: 1 A450 class
Classification [3]: 1 A450 class
Classification [4]: 1 A450 class
Classification [5]: 1 A450 class
Classification [6]: 5 A450 class
Classification [7]: 4 A450 class
Classification [8]: 1 A450 class
Classification [9]: 1 A450 class
Classification [10]: 1 A450 class
Classification [11]: 1 A450 class
Classification [12]: 3 A450 class
Classification [13]: 3 A450 class
Classification [14]: 2 A450 class
Classification [15]: 3 A450 class
Classification [16]: 1 A450 class
Classification [17]: 5 A450 class
Classification [18]: 2 A450 class
Classification [19]: 1 A450 class
Kd [20]: 1 µM
Kd [21]: 6 µM
Kd [22]: 8 µM
Kd [23]: 4 µM
Kd [24]: 4 µM
Kd [25]: 2 µM
Binder: STDNLVRPFMDTLASHQLYI (modifications not checked) [presenilin-2]

% binding of labelled 20-mer [26]: 65%
% binding of labelled 20-mer [27]: 95%
% binding of labelled 20-mer [28]: 71%
% binding of labelled 20-mer [29]: 81%
Binder: REVKFTSL (modifications not checked) [CD46 8-mer]

Classification [4]: 1 A450 class
Classification [30]: 1 A450 class
Classification [31]: 1 A450 class
Classification [32]: 3 A450 class
Classification [33]: 1 A450 class
Classification [34]: 1 A450 class
Classification [35]: 4 A450 class
Classification [36]: 1 A450 class
Classification [37]: 1 A450 class
Classification [38]: 1 A450 class
Kd [39]: 7 µM
Kd [40]: 6 µM
Binder: EDPKDRPSAAHIVEALETDV (modifications not checked) [PDZ-binding kinase (PBK)]

Classification [32]: 2 A450 class
Classification [35]: 3 A450 class
Kd [41]: 5 µM
Kd [42]: 5 µM
Binder: IVTVVTMVTNVDFPPKESSL (modifications not checked) [ActRIIA]
